This passage reports IC50 results from patent US5621079A, “Neuropeptide Y receptor” (Merck & Co., Inc., priority 1995, dated 1997).

The target in the experiment is T1, murine NPY Yx receptor (Mus musculus, UniProt Q61212).
T1 construct: identified a 371 amino acid open reading frame; expressed in transfected cells; host or cells: COS-7 cells, transient (pcDNA3 vector pVE2863), membranes
T1 sequence (Q61212 1-371): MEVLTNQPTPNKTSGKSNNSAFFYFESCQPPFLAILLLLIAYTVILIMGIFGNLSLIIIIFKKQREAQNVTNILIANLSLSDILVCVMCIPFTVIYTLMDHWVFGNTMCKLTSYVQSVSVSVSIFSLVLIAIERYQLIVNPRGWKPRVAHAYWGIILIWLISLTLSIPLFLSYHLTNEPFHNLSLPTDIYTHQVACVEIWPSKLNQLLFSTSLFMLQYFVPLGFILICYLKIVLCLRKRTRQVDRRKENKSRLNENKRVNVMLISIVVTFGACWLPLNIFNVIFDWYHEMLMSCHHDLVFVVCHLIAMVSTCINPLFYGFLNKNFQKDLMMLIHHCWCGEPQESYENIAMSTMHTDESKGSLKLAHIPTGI
Description: 125I-PYY competition binding to membranes of COS-7 cells transfected with the murine NPY Yx receptor. The note with it: COS-7 membranes (50 μg protein), 125I-PYY 90 pM, 2 hours at room temperature; read-out: IC50 (concentration of peptide causing 50% inhibition of 125I-PYY binding). As for the experimental part:
Using electroporation, COS-7 cells were transfected with the pcDNA3 expression vector containing the genomic DNA for the murine NPY Yx receptor (pVE2863). Two days post transfection, cells were dissociated with enzyme-free dissociation buffer, centrifuged at 1000 rpm for 10 minutes at 4° C., and resuspended in 10 mM Tris, pH 7.4 containing […] (phenylmethylsulfonyl fluoride), 10 μM phosphoramidon, and 40 μg/ml bacitracin. The cell suspension was homogenized with a glass homogenizer, and centrifuged at 2200 rpm for 10 minutes at 4° C. to remove cell debris. The plasma membrane fraction was recovered by centrifuging the supernatant at 18,000 rpm in a Sorvall SS-34 rotor for 15 minutes at 4° C. The membrane pellet was resuspended in the Tris/PMSF/phosphoramidon/bacitracin buffer by trituration 5 times using a 25 g needle and syringe. The membranes were stored frozen at -80° C. until use.
After 2 hours at room temperature, the incubation was filtered over GF/C filters, and the radioactivity bound to the filters was quantified with a Packard gamma counter.

Turning to NPY2-36 [NPY(2-36)], the IC50 is 16 nM.
NPY13-36 [NPY(13-36)]: the IC50 amounted to 134 nM.
With Neuropeptide Y [NPY], the IC50 came out at 6 nM.
As to [Leu31, Pro34]NPY [[Leu^31, Pro^34]NPY], the IC50 is 9 nM.
